Results as given in paper PMC5070708.
Values joined by “and” are separate entries in the source; they are usually repeats but may differ in a detail not shown here. Equal values may be shown once.

Target: ILz(6):TRAIL (human) (UniProt P50591)
Experiment: SEC

- stoichiometry N: 3 and 6
Substance: ILz(6):TRAIL (from UniProt P50591 114-281) (ligand)
